Assays:
CD28 [1] = target: T1, CD28 (Homo sapiens, UniProt P10747); assay: Flow binding to Jurkat/IL2 reporter cells (CD28); set-up: host or cells: Jurkat cells expressing an IL-2-luciferase reporter; conditions: Table E20; for CD28 MFI at 33.3 nM: Jurkats (CD28); for CD28 Fold change to WT CD80: MFI at 33.3 nM relative to CD80 WT IgV-Fc
Method in brief: (§1)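 Fusion proteins bound to CHO cells stably expressing CTLA4 or PD-L1, or to Jurkat/IL2 reporter cells with endogenous CD28, for 45 min on ice after blocking in PBS/1% BSA. Detection with PE anti-human Fc by flow cytometry; PE MFI per cell type and binding EC50 determined.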

CD28 [2] = target: T1, CD28; assay: Jurkat/IL2 + CHO/OKT3 +/- PD-L1 reporter assay: PD-L1-dependent CD28 costimulation; type: cell-based; set-up: host or cells: Jurkat cells expressing an IL-2-luciferase reporter; conditions: Table E22, Jurkat/IL2 + CHO/OKT3/PD-L1; for Fold Increase over WT CD80-IgV-Fe: 5.0 nM
Method in brief: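 Jurkat reporter cells (100,000/well) preincubated 15 min at room temperature with test protein, then cocultured 5 h at 37 °C with CHO aAPCs bearing anti-CD3 scFv (OKT3) with or without PD-L1. Luciferase luminescence (RLU) read after lysis-substrate addition.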

huCTLA4 = huCTLA4 (Homo sapiens, UniProt P16410); assay: Flow binding to CHO cells stably expressing CTLA4; set-up: huCTLA4 and huPD-L1, full-length mammalian surface expression constructs were generated; expressed in transfected cells; host or cells: CHO cells, lentiviral transduction, sorted to >98% purity; conditions: Table E20; for CTLA4 MFI at 33.3 nM: CHO cells stably expressing CTLA4; for CTLA4 Fold change to WT CD80: MFI at 33.3 nM relative to CD80 WT IgV-Fc
Method in brief: as §1

huPD-L1 = huPD-L1 (Homo sapiens, UniProt Q9NZQ7); assay: Flow binding to CHO cells stably expressing PD-L1; set-up: huCTLA4 and huPD-L1, full-length mammalian surface expression constructs were generated; expressed in transfected cells; host or cells: CHO cells, lentiviral transduction, sorted to >98% purity; conditions: Table E20; for PD-L1 MFI at 33.3 nM: CHO cells stably expressing PD-L1; for PD-L1 Fold change to WT CD80: MFI at 33.3 nM relative to CD80 WT IgV-Fc; for Ratio of PDL1:CD28: ratio of MFI at 33.3 nM
Method in brief: as §1

Sequence of huPD-L1 (Q9NZQ7 19-290): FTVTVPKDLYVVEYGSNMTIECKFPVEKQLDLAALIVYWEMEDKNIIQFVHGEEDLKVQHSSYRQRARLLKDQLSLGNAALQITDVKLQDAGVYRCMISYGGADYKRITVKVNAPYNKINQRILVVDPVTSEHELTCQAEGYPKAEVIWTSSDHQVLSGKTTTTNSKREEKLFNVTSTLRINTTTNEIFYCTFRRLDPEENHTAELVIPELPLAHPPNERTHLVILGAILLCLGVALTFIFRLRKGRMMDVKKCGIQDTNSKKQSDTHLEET
Sequence of huCTLA4 (P16410 36-223): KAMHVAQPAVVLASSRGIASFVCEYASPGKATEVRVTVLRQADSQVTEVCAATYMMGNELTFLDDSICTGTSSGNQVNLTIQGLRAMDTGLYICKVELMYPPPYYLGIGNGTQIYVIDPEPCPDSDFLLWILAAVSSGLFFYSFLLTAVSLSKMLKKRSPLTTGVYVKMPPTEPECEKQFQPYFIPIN

Molecule	CD28 MFI at 33.3 nM (CD28 [1])	CD28 Fold change to WT CD80 (CD28 [1]) [fold]	Fold Increase over WT CD80-IgV-Fe (CD28 [2]) [fold]	Relative Luciferase Units (RLU), CD80 Conc 5.0 nM (CD28 [2]) [RLU]	CTLA4 MFI at 33.3 nM (huCTLA4)	CTLA4 Fold change to WT CD80 (huCTLA4) [fold]	PD-L1 MFI at 33.3 nM (huPD-L1)	PD-L1 Fold change to WT CD80 (huPD-L1) [fold]	Ratio of PDL1:CD28 (huPD-L1)
H18Y/M47L/V68M/D90G (protein) VIHVTKEVKEVATLSCGYNVSVEELAQTRIYWQKEKKMVLTMMSGDLNIWPEYKNRTIFDITNNLSIMILALRPSDEGTYECVVLKYEKGAFKREHLAEVTLSVKAD	3795	86.4	2.14	834	19006	14.0	21768	499.3	5.7
H18Y/E35D/A71G/D90G (protein) VIHVTKEVKEVATLSCGYNVSVEELAQTRIYWQKDKKMVLTMMSGDMNIWPEYKNRTIFDITNNLSIVILGLRPSDEGTYECVVLKYEKGAFKREHLAEVTLSVKAD	1310	29.8	3.81	1487	25886	19.0	8524	195.5	6.5
H18Y/A26E/V68M/D90G (protein) VIHVTKEVKEVATLSCGYNVSVEELEQTRIYWQKEKKMVLTMMSGDMNIWPEYKNRTIFDITNNLSIMILALRPSDEGTYECVVLKYEKGAFKREHLAEVTLSVKAD	2394	54.5	2.90	1131	25794	19.0	12845	294.6	5.4
H18Y/A26E/V68M/A71G (protein) VIHVTKEVKEVATLSCGYNVSVEELEQTRIYWQKEKKMVLTMMSGDMNIWPEYKNRTIFDITNNLSIMILGLRPSDEGTYECVVLKYEKDAFKREHLAEVTLSVKAD	99.4	2.3	1.20	469	11323	8.3	6866	157.5	69.1
H18Y/A26E/M47L/A71G (protein) VIHVTKEVKEVATLSCGYNVSVEELEQTRIYWQKEKKMVLTMMSGDLNIWPEYKNRTIFDITNNLSIVILGLRPSDEGTYECVVLKYEKDAFKREHLAEVTLSVKAD	611	13.9	2.84	1107	22108	16.3	15563	356.9	25.5

From patent publication US20220177587A1, “METHODS AND USES OF VARIANT CD80 FUSION PROTEINS AND RELATED CONSTRUCTS” (Alpine Immune Sciences, Inc., priority 2018, published 2022)
